In paper PMC7804310 (2021) one finds koff and Kd data, which are given here for 1 molecule.

As usually defined, the koff is the first-order rate constant of dissociation. A word on the Kd: it is the equilibrium constant for the complex coming apart.

Holding throughout (assay): SPR
In general terms: In SPR one partner is held on a chip, and binding of the other changes the refractive index at the surface.

The target of test [1] is T1, recombinant human Melanotransferrin MTf(20-709) extracellular domain (human, UniProt P08582-1 20-709, N-glycans at Asn 38, Asn 135 and Asn 515 (high mannose N-glycans favoured by kifunensine for crystallization)).
T1 chain: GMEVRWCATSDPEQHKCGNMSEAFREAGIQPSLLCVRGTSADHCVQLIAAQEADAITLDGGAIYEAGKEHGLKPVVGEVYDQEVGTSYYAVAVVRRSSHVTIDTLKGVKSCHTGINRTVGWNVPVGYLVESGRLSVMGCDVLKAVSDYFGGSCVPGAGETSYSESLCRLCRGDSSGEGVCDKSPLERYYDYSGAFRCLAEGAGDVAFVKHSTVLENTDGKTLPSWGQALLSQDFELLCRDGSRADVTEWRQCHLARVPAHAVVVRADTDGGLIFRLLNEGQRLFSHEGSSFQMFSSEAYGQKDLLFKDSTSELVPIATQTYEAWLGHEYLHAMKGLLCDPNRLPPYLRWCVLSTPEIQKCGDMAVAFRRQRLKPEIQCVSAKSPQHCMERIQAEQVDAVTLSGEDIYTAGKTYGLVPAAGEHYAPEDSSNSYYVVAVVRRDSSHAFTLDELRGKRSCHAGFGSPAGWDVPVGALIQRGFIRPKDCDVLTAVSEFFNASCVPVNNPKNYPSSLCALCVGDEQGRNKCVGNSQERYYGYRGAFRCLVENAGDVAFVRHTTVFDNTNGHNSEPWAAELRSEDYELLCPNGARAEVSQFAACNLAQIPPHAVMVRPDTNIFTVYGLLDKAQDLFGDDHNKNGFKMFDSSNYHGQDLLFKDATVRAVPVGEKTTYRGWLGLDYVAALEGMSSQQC

Test [2] deals with T1, recombinant human Melanotransferrin ….
Test [3] deals with recombinant cynomolgus monkey MTf(20-709) extracellular domain (cynomolgus monkey).

B1: SC57.32 Fab fragment (Fab, V domains shown)
VH: QVQLQQSGAELMKPGASVKISCKATGYTFSNYRIEWIKQRPGHGLEWIGEILPRGGNTNYNEKFKGKATFTADTSSNTAYMQLTSLTSEDSAVYYCARDDGYYGRFAYWGQGTLVTVSA
VL: DIQMTQTTSSLSASLGDRVTISCRASQDISNYLNWYQQKPDGTVKLLIFYTSRLHSGVPSRFSGSGSGTDYSLTISNLEQEDFATYFCQQGNTLPPTFGGGTKLEIK
Take B1: the koff in test [1] came out at 0.00048 s⁻¹; in test [3] it was 0.00047 s⁻¹. For the same molecule, the dissociation constant Kd in test [2] was 1 nM; in test [3], 1.1 nM.
